Target: VP11-His (pET-28b/VP11-His) (White spot syndrome virus (WSSV-TW strain))
Experiment: cross-linking; VP11-His from clear E. coli lysate held on Ni-NTA beads, washed, 0.05% glutaraldehyde in PBS passed through the column, eluted with 250 mM imidazole, SDS-PAGE and anti-His immunoblot

“VP11-His (pET-28b/VP11-His) (natural protein)” showed a stoichiometry N of 2.
